Results as given in paper PMC5564421.
Where two headings read alike, the source gives them in different places.

How the values were obtained:
[1] = target: WT* iso-1-Cytc (K72A variant of yeast iso-1-cytochrome c, with C102S) (yeast); assay: SEC
[2] = target: WT* iso-1-Cytc (K72A variant of yeast iso-1-cytochrome c, with C102S) (yeast); assay: SEC; remark: listed apart in the source
[3] = target: WT* iso-1-Cytc (K72A variant of yeast iso-1-cytochrome c, with C102S) (yeast); assay: SEC; remark: listed apart in the source
[4] = target: WT* iso-1-Cytc (K72A variant of yeast iso-1-cytochrome c, with C102S) (yeast); assay: SEC; remark: listed apart in the source
[5] = target: WT* iso-1-Cytc (K72A variant of yeast iso-1-cytochrome c, with C102S) (yeast); assay: SEC; remark: listed apart in the source
[6] = target: WT* iso-1-Cytc (K72A variant of yeast iso-1-cytochrome c, with C102S) (yeast); assay: crystal structure
[7] = target: Cytc from equine heart (equine) (UniProt P00004); assay: SEC
[8] = target: Cytc from equine heart (equine) (UniProt P00004); assay: SEC; remark: listed apart in the source

Chain of Cytc from equine heart, P00004 1-105 (natural protein; other documents disagree on this pair) (P00004 whole entry): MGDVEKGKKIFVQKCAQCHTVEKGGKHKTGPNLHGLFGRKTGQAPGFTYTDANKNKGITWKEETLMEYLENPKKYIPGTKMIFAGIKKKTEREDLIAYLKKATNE

koff [1] [s⁻¹] | koff [2] [s⁻¹] | koff [3] [s⁻¹] | koff [4] [s⁻¹] | koff [5] [s⁻¹] | stoichiometry N [6] | koff [7] [s⁻¹] | koff [8] [s⁻¹] | lifetime of the dimer [8] [days] | Substance
0.00055 | 6.1e-05 | 6.5e-06 | 1.6e-05 | 0.0034 | 2 |  |  |  | WT* iso-1-Cytc (K72A variant of yeast iso-1-cytochrome c, with C102S) (natural protein)
 |  |  |  |  |  | 1.6e-06 | 1.5e-05 | 7.4 | Cytc from equine heart, P00004 1-105 (natural protein; other documents disagree on this pair)
